{
  "source": "paper PMC3538003",
  "about": "“A full-length recombinant Plasmodium falciparum PfRH5 protein induces inhibitory antibodies that are effective across common PfRH5 genetic variants” (Vaccine, 2013)",
  "molecules": {"B1": {"name": "7G8 PfRH5-Cd4-biotin (P. falciparum Reticulocyte Binding Protein Homologue 5, 7G8 variant) (ligand)", "chain": "FENAIKKTKNQENNLALLPIKSTEEEKDDIKNGKDIKKEIDNDKENIKTNNAKDHSTYIKSYLNTNVNDGLKYLFIPSHNSFIKKYSVFNQINDGMLLNEKNDVKNNEDYKNVDYKNVNFLQYHFKELSNYNIANSIDILQEKEGHLDFVIIPHYTFLDYYKHLSYNSIYHKSSTYGKYIAVDAFIKKINEAYDKVKSKCNDIKNDLIATIKKLEHPYDINNKNDDSYRYDISEEIDDKSEETDDETEEVEDSIQDTDSNHAPSNKKKNDLMNRAFKKMMDEYNTKKKKLIKCIKNHENDFNKICMDMKNYGTNLFEQLSCYNNNFCNTNGIRYHYDEYIHKLILSVKSKNLNKDLSDMTNILQQSELLLTNLNKKMGSYIYIDTIKFIHKEMKHIFNRIEYHTKIINDKTKIIQDKIKLNIWRTFQKDELLKRILDMSNEYSLFITSDHLRQMLYNTFYSKEKHLNNIFHHLIYVLQMKFNDVPIKMEYFQTYKKNKPLTQ", "modifications": "monobiotinylated (biotin)"}},
  "key": {"[1]": {"molecular_target": "3D7 PfRH5-Cd4-biotin (P. falciparum Reticulocyte Binding Protein Homologue 5, 3D7 variant) (Plasmodium falciparum (3D7))", "assay": "SPR; kinetic analysis, simple 1:1 model fitted globally; biotinylated PfRH5-Cd4 captured on a streptavidin chip, biotinylated rat Cd4d3+4 in the reference cell; serial dilutions of basigin-Cd4-6H injected at 100 µl/min; BIAcore T100, 37°C, HBS-EP; regeneration with 2M NaCl"}, "[2]": {"molecular_target": "GB4 PfRH5-Cd4-biotin (P. falciparum Reticulocyte Binding Protein Homologue 5, GB4 variant) (Plasmodium falciparum (GB4))", "assay": "SPR; equilibrium analysis; biotinylated PfRH5-Cd4 captured on a streptavidin chip, biotinylated rat Cd4d3+4 in the reference cell; serial dilutions of basigin-Cd4-6H injected at 20 µl/min; BIAcore T100, 37°C, HBS-EP; regeneration with 2M NaCl"}, "[3]": {"molecular_target": "7G8 PfRH5-Cd4-biotin (P. falciparum Reticulocyte Binding Protein Homologue 5, 7G8 variant) (Plasmodium falciparum (7G8))", "assay": "SPR; kinetic analysis, simple 1:1 model fitted globally; biotinylated PfRH5-Cd4 captured on a streptavidin chip, biotinylated rat Cd4d3+4 in the reference cell; serial dilutions of basigin-Cd4-6H injected at 100 µl/min; BIAcore T100, 37°C, HBS-EP; regeneration with 2M NaCl"}, "[4]": {"molecular_target": "7G8 PfRH5-Cd4-biotin (P. falciparum Reticulocyte Binding Protein Homologue 5, 7G8 variant) (Plasmodium falciparum (7G8))", "assay": "SPR; kinetic analysis, simple 1:1 model fitted globally; biotinylated PfRH5-Cd4 captured on a streptavidin chip, biotinylated rat Cd4d3+4 in the reference cell; serial dilutions of basigin-Cd4-6H injected at 100 µl/min; BIAcore T100, 37°C, HBS-EP; regeneration with 2M NaCl", "remark": "listed apart in the source"}, "[5]": {"molecular_target": "GB4 PfRH5-Cd4-biotin (P. falciparum Reticulocyte Binding Protein Homologue 5, GB4 variant) (Plasmodium falciparum (GB4))", "assay": "SPR; kinetic analysis, simple 1:1 model fitted globally; biotinylated PfRH5-Cd4 captured on a streptavidin chip, biotinylated rat Cd4d3+4 in the reference cell; serial dilutions of basigin-Cd4-6H injected at 100 µl/min; BIAcore T100, 37°C, HBS-EP; regeneration with 2M NaCl"}, "[6]": {"molecular_target": "3D7 PfRH5-Cd4-biotin (P. falciparum Reticulocyte Binding Protein Homologue 5, 3D7 variant) (Plasmodium falciparum (3D7))", "assay": "SPR; kinetic analysis, simple 1:1 model fitted globally; biotinylated PfRH5-Cd4 captured on a streptavidin chip, biotinylated rat Cd4d3+4 in the reference cell; serial dilutions of basigin-Cd4-6H injected at 100 µl/min; BIAcore T100, 37°C, HBS-EP; regeneration with 2M NaCl", "remark": "listed apart in the source"}, "[7]": {"molecular_target": "GB4 PfRH5-Cd4-biotin (P. falciparum Reticulocyte Binding Protein Homologue 5, GB4 variant) (Plasmodium falciparum (GB4))", "assay": "SPR; kinetic analysis, simple 1:1 model fitted globally; biotinylated PfRH5-Cd4 captured on a streptavidin chip, biotinylated rat Cd4d3+4 in the reference cell; serial dilutions of basigin-Cd4-6H injected at 100 µl/min; BIAcore T100, 37°C, HBS-EP; regeneration with 2M NaCl", "remark": "listed apart in the source"}, "[8]": {"molecular_target": "7G8 PfRH5-Cd4-biotin (P. falciparum Reticulocyte Binding Protein Homologue 5, 7G8 variant) (Plasmodium falciparum (7G8))", "assay": "SPR; kinetic analysis, simple 1:1 model fitted globally; biotinylated PfRH5-Cd4 captured on a streptavidin chip, biotinylated rat Cd4d3+4 in the reference cell; serial dilutions of basigin-Cd4-6H injected at 100 µl/min; BIAcore T100, 37°C, HBS-EP; regeneration with 2M NaCl", "remark": "listed apart in the source"}, "[9]": {"molecular_target": "3D7 PfRH5-Cd4-biotin (P. falciparum Reticulocyte Binding Protein Homologue 5, 3D7 variant) (Plasmodium falciparum (3D7))", "assay": "SPR; kinetic analysis, simple 1:1 model fitted globally; biotinylated PfRH5-Cd4 captured on a streptavidin chip, biotinylated rat Cd4d3+4 in the reference cell; serial dilutions of basigin-Cd4-6H injected at 100 µl/min; BIAcore T100, 37°C, HBS-EP; regeneration with 2M NaCl", "remark": "listed apart in the source"}, "[10]": {"molecular_target": "GB4 PfRH5-Cd4-biotin (P. falciparum Reticulocyte Binding Protein Homologue 5, GB4 variant) (Plasmodium falciparum (GB4))", "assay": "SPR; kinetic analysis, simple 1:1 model fitted globally; biotinylated PfRH5-Cd4 captured on a streptavidin chip, biotinylated rat Cd4d3+4 in the reference cell; serial dilutions of basigin-Cd4-6H injected at 100 µl/min; BIAcore T100, 37°C, HBS-EP; regeneration with 2M NaCl", "remark": "listed apart in the source"}, "[11]": {"molecular_target": "GB4 PfRH5-Cd4-biotin (P. falciparum Reticulocyte Binding Protein Homologue 5, GB4 variant) (Plasmodium falciparum (GB4))", "assay": "SPR; equilibrium analysis; biotinylated PfRH5-Cd4 captured on a streptavidin chip, biotinylated rat Cd4d3+4 in the reference cell; serial dilutions of basigin-Cd4-6H injected at 20 µl/min; BIAcore T100, 37°C, HBS-EP; regeneration with 2M NaCl", "remark": "listed apart in the source"}, "[12]": {"molecular_target": "7G8 PfRH5-Cd4-biotin (P. falciparum Reticulocyte Binding Protein Homologue 5, 7G8 variant) (Plasmodium falciparum (7G8))", "assay": "SPR; equilibrium analysis; biotinylated PfRH5-Cd4 captured on a streptavidin chip, biotinylated rat Cd4d3+4 in the reference cell; serial dilutions of basigin-Cd4-6H injected at 20 µl/min; BIAcore T100, 37°C, HBS-EP; regeneration with 2M NaCl"}, "[13]": {"molecular_target": "7G8 PfRH5-Cd4-biotin (P. falciparum Reticulocyte Binding Protein Homologue 5, 7G8 variant) (Plasmodium falciparum (7G8))", "assay": "SPR; equilibrium analysis; biotinylated PfRH5-Cd4 captured on a streptavidin chip, biotinylated rat Cd4d3+4 in the reference cell; serial dilutions of basigin-Cd4-6H injected at 20 µl/min; BIAcore T100, 37°C, HBS-EP; regeneration with 2M NaCl", "remark": "listed apart in the source"}, "[14]": {"molecular_target": "GB4 PfRH5-Cd4-biotin (P. falciparum Reticulocyte Binding Protein Homologue 5, GB4 variant) (Plasmodium falciparum (GB4))", "assay": "SPR; equilibrium analysis; biotinylated PfRH5-Cd4 captured on a streptavidin chip, biotinylated rat Cd4d3+4 in the reference cell; serial dilutions of basigin-Cd4-6H injected at 20 µl/min; BIAcore T100, 37°C, HBS-EP; regeneration with 2M NaCl", "remark": "listed apart in the source"}, "[15]": {"molecular_target": "3D7 PfRH5-Cd4-biotin (P. falciparum Reticulocyte Binding Protein Homologue 5, 3D7 variant) (Plasmodium falciparum (3D7))", "assay": "SPR; equilibrium analysis; biotinylated PfRH5-Cd4 captured on a streptavidin chip, biotinylated rat Cd4d3+4 in the reference cell; serial dilutions of basigin-Cd4-6H injected at 20 µl/min; BIAcore T100, 37°C, HBS-EP; regeneration with 2M NaCl"}, "[16]": {"molecular_target": "human basigin extracellular region, soluble Cd4d3+4-6H-tagged (basigin-Cd4-6H) (human, UniProt P35613 138-325)", "assay": "SPR; BIAcore T100; monomeric biotinylated PfRH5-Cd4 bait captured on a streptavidin-coated chip, Cd4-biotin in the reference flow cell; serial dilutions of purified basigin-Cd4-6H injected at 20 ul/min (equilibrium) or 100 ul/min (kinetics); Langmuir isotherm fit", "settings": "both partners purified"}},
  "note": "Read-outs that look alike come from different tables or passages of the source.",
  "data": [
    {"molecule": "basigin-L-Cd4d3+4-6H (extracellular region of human basigin) (from UniProt P35613 138-325) (domain or fragment)", "values": [
      {"measurement": "koff", "setting": "[1]", "result": 0.236, "unit": "s⁻¹"},
      {"measurement": "kon", "setting": "[1]", "result": 95600, "unit": "M⁻¹ s⁻¹"},
      {"measurement": "Kd", "setting": "[2]", "result": 800, "unit": "nM"},
      {"measurement": "koff", "setting": "[3]", "result": 0.251, "unit": "s⁻¹"},
      {"measurement": "kon", "setting": "[3]", "result": 125000, "unit": "M⁻¹ s⁻¹"},
      {"measurement": "koff", "setting": "[4]", "result": 0.256, "unit": "s⁻¹"},
      {"measurement": "kon", "setting": "[4]", "result": 128000, "unit": "M⁻¹ s⁻¹"},
      {"measurement": "koff", "setting": "[5]", "result": 0.216, "unit": "s⁻¹"},
      {"measurement": "kon", "setting": "[5]", "result": 118000, "unit": "M⁻¹ s⁻¹"},
      {"measurement": "koff", "setting": "[6]", "result": 0.24, "unit": "s⁻¹"},
      {"measurement": "kon", "setting": "[6]", "result": 89600, "unit": "M⁻¹ s⁻¹"},
      {"measurement": "koff", "setting": "[7]", "result": 0.23, "unit": "s⁻¹"},
      {"measurement": "kon", "setting": "[7]", "result": 110000, "unit": "M⁻¹ s⁻¹"},
      {"measurement": "koff", "setting": "[8]", "result": 0.245, "unit": "s⁻¹"},
      {"measurement": "kon", "setting": "[8]", "result": 122000, "unit": "M⁻¹ s⁻¹"},
      {"measurement": "koff", "setting": "[9]", "result": 0.238, "unit": "s⁻¹"},
      {"measurement": "kon", "setting": "[9]", "result": 93000, "unit": "M⁻¹ s⁻¹"},
      {"measurement": "koff", "setting": "[10]", "result": 0.244, "unit": "s⁻¹"},
      {"measurement": "kon", "setting": "[10]", "result": 95900, "unit": "M⁻¹ s⁻¹"},
      {"measurement": "Kd", "setting": "[11]", "result": 1000, "unit": "nM"},
      {"measurement": "Kd", "setting": "[12]", "result": 800, "unit": "nM"},
      {"measurement": "Kd", "setting": "[13]", "result": 1000, "unit": "nM"},
      {"measurement": "Kd", "setting": "[14]", "result": 1100, "unit": "nM"},
      {"measurement": "Kd", "setting": "[15]", "result": 1600, "unit": "nM"}
    ]},
    {"molecule": "B1", "values": [
      {"measurement": "Kd", "setting": "[16]", "result": 900, "unit": "nM"}
    ]}
  ]
}
